The source of these data is the supplement of paper PMC9112550, “Optimization of the antimicrobial peptide Bac7 by deep mutational scanning” (BMC Biology, 2022).

The series deals with Escherichia coli TOP10. Nature of the series: shrunken log2 fold change of peptide-encoding DNA abundance (4.5 h post-induction vs induction); higher = less antimicrobial activity (less host growth inhibition). To be noted: time post-induction: 4.5 h; library: site-saturation at positions 5, 18, 19, 20.
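Also: peptides expressed intracellularly from a pBAD plasmid library in pooled LB shake-flask culture, induced with 0.3% L-arabinose, DNA abundance read by NGS, three biological replicates, DESeq2 with apeglm shrinkage.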

For RRIRSRPPRLPRPRPRPFLIPRP, the “shrunken log2 fold change” value is -0.383.

Take RRIRIRPPRLPRPRPRPMILPRP: the “shrunken log2 fold change” value was -0.131. With RRIRVRPPRLPRPRPRPTAHPRP the figure was 0.246. Consider RRIRWRPPRLPRPRPRPWQCPRP, for which the “shrunken log2 fold change” value is -0.233. On to RRIRRRPPRLPRPRPRPWAIPRP, for which the “shrunken log2 fold change” value is -0.0356. The value for RRIRWRPPRLPRPRPRPYRIPRP was -0.209; that for RRIRCRPPRLPRPRPRPVPRPRP was 0.534; that for RRIRWRPPRLPRPRPRPGNGPRP was -0.0519. With RRIRLRPPRLPRPRPRPCIVPRP the figure was -0.641; with RRIRHRPPRLPRPRPRPDEWPRP, -0.000921; with RRIRIRPPRLPRPRPRPDDQPRP, 0.0121. For the sequence RRIRCRPPRLPRPRPRPVCYPRP, the “shrunken log2 fold change” value is -0.269. The value for RRIRQRPPRLPRPRPRPCIEPRP was 0.015; that for RRIRERPPRLPRPRPRPGDVPRP was -0.159.

For the sequence RRIRKRPPRLPRPRPRPWDMPRP, the “shrunken log2 fold change” value worked out at 0.142. Consider RRIRPRPPRLPRPRPRPHRGPRP, for which the “shrunken log2 fold change” value is -0.0385.

In the case of RRIRPRPPRLPRPRPRPMWIPRP, the “shrunken log2 fold change” value was -0.237. For RRIRQRPPRLPRPRPRPKLMPRP, the “shrunken log2 fold change” value is -0.082.

On to RRIRKRPPRLPRPRPRPDLCPRP, for which the “shrunken log2 fold change” value was found to be 0.741.

For RRIRDRPPRLPRPRPRPKLIPRP, the “shrunken log2 fold change” value came out at 0.088. With RRIRYRPPRLPRPRPRPYGWPRP the figure was -0.187.

With RRIRNRPPRLPRPRPRPEGAPRP, the “shrunken log2 fold change” value turned out to be 2.8. As to RRIRCRPPRLPRPRPRPSVLPRP, the “shrunken log2 fold change” value is 0.0648.

In the case of RRIRTRPPRLPRPRPRPNYQPRP, the “shrunken log2 fold change” value is -0.362. The value for RRIRNRPPRLPRPRPRPFVCPRP was -0.45; that for RRIRLRPPRLPRPRPRPVHEPRP was 0.0233; that for RRIRWRPPRLPRPRPRPTADPRP was 1.51. As for RRIRYRPPRLPRPRPRPELNPRP, the “shrunken log2 fold change” value is -0.395. Regarding RRIRSRPPRLPRPRPRPCIHPRP, the “shrunken log2 fold change” value is -1.37.

RRIRNRPPRLPRPRPRPCESPRP: the “shrunken log2 fold change” value was -0.00141. In the case of RRIRVRPPRLPRPRPRPPQLPRP, the “shrunken log2 fold change” value was 0.0208.

Turning to RRIRSRPPRLPRPRPRPNQEPRP, the “shrunken log2 fold change” value came out at 0.0169.

RRIRRRPPRLPRPRPRPENVPRP: the “shrunken log2 fold change” value was -0.0722.

Regarding RRIRHRPPRLPRPRPRPKQHPRP, the “shrunken log2 fold change” value is -0.2. With RRIRARPPRLPRPRPRPMEEPRP the figure was -0.0115; with RRIRGRPPRLPRPRPRPHNLPRP, -0.262. With RRIRSRPPRLPRPRPRPSMIPRP, the “shrunken log2 fold change” value is -0.625. With RRIRQRPPRLPRPRPRPRMDPRP, the “shrunken log2 fold change” value was -0.0734. With RRIRDRPPRLPRPRPRPLDDPRP the figure was 0.459; with RRIRSRPPRLPRPRPRPIKSPRP, 0.041. The value for RRIRGRPPRLPRPRPRPMYGPRP was -0.107; that for RRIRFRPPRLPRPRPRPNGSPRP was 0.0396. As for RRIRGRPPRLPRPRPRPYQQPRP, the “shrunken log2 fold change” value turned out to be 0.0771. The value for RRIRHRPPRLPRPRPRPFACPRP was -0.205; that for RRIRYRPPRLPRPRPRPHWNPRP was -0.799; that for RRIRFRPPRLPRPRPRPSSFPRP was -0.227. For RRIRFRPPRLPRPRPRPNAEPRP, the “shrunken log2 fold change” value is 0.67. The value for RRIRKRPPRLPRPRPRPGMSPRP was 0.361; that for RRIRIRPPRLPRPRPRPEQFPRP was 0.00851. The value for RRIRPRPPRLPRPRPRPKWGPRP was 0.0577. Turning to RRIRRRPPRLPRPRPRPWEEPRP, the “shrunken log2 fold change” value is 0.158. Consider RRIRNRPPRLPRPRPRPMDCPRP, for which the “shrunken log2 fold change” value was determined as 0.0919. For RRIRARPPRLPRPRPRPLCEPRP, the “shrunken log2 fold change” value was 0.879. For RRIRDRPPRLPRPRPRPFIAPRP, the “shrunken log2 fold change” value is -0.237. For the sequence RRIRFRPPRLPRPRPRPILYPRP, the “shrunken log2 fold change” value was -0.7. On to RRIRTRPPRLPRPRPRPWWNPRP, for which the “shrunken log2 fold change” value was -0.233. For the sequence RRIRWRPPRLPRPRPRPITGPRP, the “shrunken log2 fold change” value was determined as 0.047. The value for RRIRTRPPRLPRPRPRPHTTPRP was -0.166. With RRIRNRPPRLPRPRPRPAYYPRP the figure was -0.0433; with RRIRYRPPRLPRPRPRPTRSPRP, -0.581; with RRIRVRPPRLPRPRPRPKHEPRP, -0.0072. With RRIRIRPPRLPRPRPRPQYNPRP, the “shrunken log2 fold change” value was -1.12. The value for RRIRGRPPRLPRPRPRPTKTPRP was 0.0741. Take RRIRRRPPRLPRPRPRPLAQPRP: the “shrunken log2 fold change” value came to 0.498. With RRIRTRPPRLPRPRPRPLKTPRP the figure was -0.0866. Consider RRIRPRPPRLPRPRPRPWNDPRP, for which the “shrunken log2 fold change” value was 0.0243. With RRIRTRPPRLPRPRPRPHQCPRP the figure was 0.021. Consider RRIRTRPPRLPRPRPRPDSTPRP, for which the “shrunken log2 fold change” value is -0.232. With RRIRGRPPRLPRPRPRPLGEPRP, the “shrunken log2 fold change” value is 1.08. With RRIRFRPPRLPRPRPRPFFQPRP the figure was -0.378. Turning to RRIRPRPPRLPRPRPRPLHAPRP, the “shrunken log2 fold change” value came out at 0.282. RRIRYRPPRLPRPRPRPANAPRP: the “shrunken log2 fold change” value turned out to be 0.00281.

On to RRIRQRPPRLPRPRPRPCKLPRP, for which the “shrunken log2 fold change” value is -0.167. The value for RRIRARPPRLPRPRPRPGNPPRP was 0.167; that for RRIRMRPPRLPRPRPRPKRIPRP was 0.609. With RRIRDRPPRLPRPRPRPECTPRP the figure was 1.05; with RRIRPRPPRLPRPRPRPFPQPRP, 0.54; with RRIRIRPPRLPRPRPRPNFWPRP, -0.0359.

For the sequence RRIRCRPPRLPRPRPRPSPTPRP, the “shrunken log2 fold change” value is 0.022. With RRIRWRPPRLPRPRPRPESKPRP the figure was 0.268. The value for RRIRRRPPRLPRPRPRPPPGPRP was 1.05. The value for RRIRFRPPRLPRPRPRPYAPPRP was -0.496; that for RRIRIRPPRLPRPRPRPLMSPRP was -0.372; that for RRIRTRPPRLPRPRPRPDLQPRP was -0.0382.

In the case of RRIRSRPPRLPRPRPRPIPHPRP, the “shrunken log2 fold change” value is -0.184. The value for RRIRHRPPRLPRPRPRPAIIPRP was -0.113; that for RRIRIRPPRLPRPRPRPEAYPRP was 0.00489.

On to RRIRDRPPRLPRPRPRPLYHPRP, for which the “shrunken log2 fold change” value was -0.54.

Regarding RRIRYRPPRLPRPRPRPSYTPRP, the “shrunken log2 fold change” value was -1.38. The value for RRIRLRPPRLPRPRPRPMWHPRP was 0.203; that for RRIRPRPPRLPRPRPRPGNDPRP was -0.0392. With RRIRQRPPRLPRPRPRPGCHPRP the figure was -0.11; with RRIRRRPPRLPRPRPRPGAAPRP, 0.866; with RRIRYRPPRLPRPRPRPTCLPRP, -0.821. Regarding RRIRDRPPRLPRPRPRPLSMPRP, the “shrunken log2 fold change” value was -0.283. As for RRIRGRPPRLPRPRPRPRKTPRP, the “shrunken log2 fold change” value was determined as 0.375. With RRIRVRPPRLPRPRPRPDKFPRP the figure was 0.0677.

RRIRWRPPRLPRPRPRPANFPRP: the “shrunken log2 fold change” value was found to be 0.106. Turning to RRIRVRPPRLPRPRPRPIIRPRP, the “shrunken log2 fold change” value was -0.199. Consider RRIRKRPPRLPRPRPRPSVTPRP, for which the “shrunken log2 fold change” value is -0.0473. On to RRIRFRPPRLPRPRPRPLEAPRP, for which the “shrunken log2 fold change” value came out at 0.0974.

For RRIRERPPRLPRPRPRPICVPRP, the “shrunken log2 fold change” value was -0.301. As for RRIRMRPPRLPRPRPRPGRCPRP, the “shrunken log2 fold change” value was found to be 1.02.

For the sequence RRIRTRPPRLPRPRPRPSRVPRP, the “shrunken log2 fold change” value is 0.526. With RRIRGRPPRLPRPRPRPLSEPRP the figure was 0.52; with RRIRNRPPRLPRPRPRPRGLPRP, 0.342.

In the case of RRIRSRPPRLPRPRPRPTHAPRP, the “shrunken log2 fold change” value was 0.368. As to RRIRSRPPRLPRPRPRPLTRPRP, the “shrunken log2 fold change” value was 0.0286. Take RRIRSRPPRLPRPRPRPSRWPRP: the “shrunken log2 fold change” value stood at 0.188. As for RRIRARPPRLPRPRPRPVWAPRP, the “shrunken log2 fold change” value is 0.305. With RRIRHRPPRLPRPRPRPKNNPRP the figure was -0.74. With RRIRYRPPRLPRPRPRPNCWPRP the figure was -0.36; with RRIRYRPPRLPRPRPRPRSSPRP, 0.069; with RRIRERPPRLPRPRPRPLLGPRP, -0.144.

In the case of RRIRKRPPRLPRPRPRPGPDPRP, the “shrunken log2 fold change” value was determined as 0.608. With RRIRVRPPRLPRPRPRPYPLPRP the figure was -0.478; with RRIRHRPPRLPRPRPRPKYPPRP, 0.0718.

Turning to RRIRQRPPRLPRPRPRPVAPPRP, the “shrunken log2 fold change” value worked out at 0.357. With RRIRDRPPRLPRPRPRPDDHPRP the figure was 0.023; with RRIRARPPRLPRPRPRPRYGPRP, -0.0744.

RRIRARPPRLPRPRPRPHRGPRP: the “shrunken log2 fold change” value came out at 0.14. The value for RRIRRRPPRLPRPRPRPLFSPRP was -0.0439; that for RRIRTRPPRLPRPRPRPYNQPRP was -0.33. With RRIRERPPRLPRPRPRPNLMPRP the figure was -0.665; with RRIRWRPPRLPRPRPRPETTPRP, 0.234.
